Data on one molecule can be found in patent publication US20110195849A1 (DUKE UNIVERSITY, published 2011).

The target in assay [1] is T1, MutSβ (MSH2-MSH3) (human, UniProt P43246 2-934; P20585 1-1137).
T1 construct: mature;range 1-1137; Recombinant heterodimer from baculovirus-infected Sf9 cells; 232 kDa; also called wild type MutSβ; MSH2-MSH3 heterodimer
The assay can be described thus: SPRS, MutLα varied with 0.10 µM MutSβ on heteroduplex DNA, 1 mM ATP. The source says:
MutSβ PIP box mutants are defective in MutLα interaction—Interaction between MutS and MutL homologs has been documented in several systems (3, 4), but the nature of the human MutLα-MutSβ complex has not been addressed. We have therefore used SPRS to examine the capacity of MutSβ and its PIP box mutants to support formation of a MutLα-MutSβ-DNA ternary complex. With reference to FIG. 2A, ATP-dependent assembly of the MutLα-MutSβ-DNA ternary complex was scored by SPRS using a 200 bp -TG- I/D heteroduplex (solid lines) or homoduplex (dashed lines) DNA. […] Similar analyses were performed with MutSβΔ28 (middle panel) and MutSβ-F27A-F28A. […] This mass increase was not observed in the absence of ATP (not shown), and we were unable to detect DNA binding by MutLα alone (not shown). The latter results are consistent with previous findings that assembly of ternary complexes involving MutL and MutS homologs is ATP-dependent and that DNA binding by MutL homologs is limited at physiological ionic strength (17, 25, 35-38). The lifetime of the ternary complex is also short, with 80% dissociating with a t_{1/2} of 7s. […] Complex formation on homoduplex DNA (open symbols) was not saturable.

Assay [2] deals with T1, MutSβ (MSH2-MSH3). As to the kind of experiment: SPRS, MutLα-MutSβ-DNA ternary complex.

T1 sequence (P43246 2-934 limits assumed, chain 1 of 2): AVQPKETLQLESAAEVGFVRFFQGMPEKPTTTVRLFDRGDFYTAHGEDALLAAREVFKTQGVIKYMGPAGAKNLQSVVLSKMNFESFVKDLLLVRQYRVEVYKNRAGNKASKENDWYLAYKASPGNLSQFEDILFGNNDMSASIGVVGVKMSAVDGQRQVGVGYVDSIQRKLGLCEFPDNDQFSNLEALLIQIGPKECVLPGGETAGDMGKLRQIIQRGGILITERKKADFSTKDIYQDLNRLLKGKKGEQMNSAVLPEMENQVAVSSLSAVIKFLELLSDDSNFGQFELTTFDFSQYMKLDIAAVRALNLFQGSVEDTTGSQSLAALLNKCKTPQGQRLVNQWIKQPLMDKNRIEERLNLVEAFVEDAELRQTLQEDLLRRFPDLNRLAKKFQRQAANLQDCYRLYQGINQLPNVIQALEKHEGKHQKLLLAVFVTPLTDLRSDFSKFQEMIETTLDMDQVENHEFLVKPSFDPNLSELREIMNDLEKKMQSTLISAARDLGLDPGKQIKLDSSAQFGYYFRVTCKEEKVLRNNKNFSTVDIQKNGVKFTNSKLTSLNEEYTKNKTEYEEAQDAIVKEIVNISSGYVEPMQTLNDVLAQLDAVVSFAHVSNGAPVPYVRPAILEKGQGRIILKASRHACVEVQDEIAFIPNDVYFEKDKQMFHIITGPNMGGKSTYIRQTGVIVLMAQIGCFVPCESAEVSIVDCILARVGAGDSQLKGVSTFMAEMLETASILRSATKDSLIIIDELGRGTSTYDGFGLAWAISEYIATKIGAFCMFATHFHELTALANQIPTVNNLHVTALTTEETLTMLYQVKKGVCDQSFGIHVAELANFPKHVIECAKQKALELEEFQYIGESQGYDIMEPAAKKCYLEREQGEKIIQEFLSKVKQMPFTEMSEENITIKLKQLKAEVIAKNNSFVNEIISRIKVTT
T1 sequence (P20585 whole entry, chain 2 of 2): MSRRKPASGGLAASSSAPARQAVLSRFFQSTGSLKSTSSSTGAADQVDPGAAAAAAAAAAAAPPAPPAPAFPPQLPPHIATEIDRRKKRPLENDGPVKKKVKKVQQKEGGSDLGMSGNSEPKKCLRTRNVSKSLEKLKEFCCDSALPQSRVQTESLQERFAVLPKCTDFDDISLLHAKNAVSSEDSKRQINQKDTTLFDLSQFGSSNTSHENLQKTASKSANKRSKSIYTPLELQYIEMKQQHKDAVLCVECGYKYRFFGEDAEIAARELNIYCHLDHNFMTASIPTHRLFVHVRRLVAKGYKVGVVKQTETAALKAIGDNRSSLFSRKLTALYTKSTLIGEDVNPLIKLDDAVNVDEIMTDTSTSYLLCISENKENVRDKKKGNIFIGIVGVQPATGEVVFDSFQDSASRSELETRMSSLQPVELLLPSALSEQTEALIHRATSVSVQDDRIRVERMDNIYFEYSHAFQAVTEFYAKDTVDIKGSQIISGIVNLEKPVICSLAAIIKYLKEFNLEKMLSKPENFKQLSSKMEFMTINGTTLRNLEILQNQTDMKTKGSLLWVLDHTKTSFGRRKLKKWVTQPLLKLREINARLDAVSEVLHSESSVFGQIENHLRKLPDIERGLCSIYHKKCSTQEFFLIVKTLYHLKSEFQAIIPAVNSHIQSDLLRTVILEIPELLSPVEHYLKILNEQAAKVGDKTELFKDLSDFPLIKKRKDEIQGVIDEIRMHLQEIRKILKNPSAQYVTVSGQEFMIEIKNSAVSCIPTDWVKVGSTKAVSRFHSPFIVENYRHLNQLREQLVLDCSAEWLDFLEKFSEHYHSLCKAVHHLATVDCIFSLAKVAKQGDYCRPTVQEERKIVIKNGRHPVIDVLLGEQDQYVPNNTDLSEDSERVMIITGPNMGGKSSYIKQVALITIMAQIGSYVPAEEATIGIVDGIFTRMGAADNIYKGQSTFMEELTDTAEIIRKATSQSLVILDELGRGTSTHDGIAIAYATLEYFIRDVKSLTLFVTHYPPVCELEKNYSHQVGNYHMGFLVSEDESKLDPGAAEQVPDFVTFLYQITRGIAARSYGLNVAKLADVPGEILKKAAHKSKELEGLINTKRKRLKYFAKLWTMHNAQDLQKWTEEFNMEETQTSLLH

B1: MutLα (MLH1-PMS2) (enzyme, human)
chain 1: MSFVAGVIRRLDETVVNRIAAGEVIQRPANAIKEMIENCLDAKSTSIQVIVKEGGLKLIQIQDNGTGIRKEDLDIVCERFTTSKLQSFEDLASISTYGFRGEALASISHVAHVTITTKTADGKCAYRASYSDGKLKAPPKPCAGNQGTQITVEDLFYNIATRRKALKNPSEEYGKILEVVGRYSVHNAGISFSVKKQGETVADVRTLPNASTVDNIRSIFGNAVSRELIEIGCEDKTLAFKMNGYISNANYSVKKCIFLLFINHRLVESTSLRKAIETVYAAYLPKNTHPFLYLSLEISPQNVDVNVHPTKHEVHFLHEESILERVQQHIESKLLGSNSSRMYFTQTLLPGLAGPSGEMVKSTTSLTSSSTSGSSDKVYAHQMVRTDSREQKLDAFLQPLSKPLSSQPQAIVTEDKTDISSGRARQQDEEMLELPAPAEVAAKNQSLEGDTTKGTSEMSEKRGPTSSNPRKRHREDSDVEMVEDDSRKEMTAACTPRRRIINLTSVLSLQEEINEQGHEVLREMLHNHSFVGCVNPQWALAQHQTKLYLLNTTKLSEELFYQILIYDFANFGVLRLSEPAPLFDLAMLALDSPESGWTEEDGPKEGLAEYIVEFLKKKAEMLADYFSLEIDEEGNLIGLPLLIDNYVPPLEGLPIFILRLATEVNWDEEKECFESLSKECAMFYSIRKQYISEESTLSGQQSEVPGSIPNSWKWTVEHIVYKALRSHILPPKHFTEDGNILQLANLPDLYKVFERC
chain 2: MERAESSSTEPAKAIKPIDRKSVHQICSGQVVLSLSTAVKELVENSLDAGATNIDLKLKDYGVDLIEVSDNGCGVEEENFEGLTLKHHTSKIQEFADLTQVETFGFRGEALSSLCALSDVTISTCHASAKVGTRLMFDHNGKIIQKTPYPRPRGTTVSVQQLFSTLPVRHKEFQRNIKKEYAKMVQVLHAYCIISAGIRVSCTNQLGQGKRQPVVCTGGSPSIKENIGSVFGQKQLQSLIPFVQLPPSDSVCEEYGLSCSDALHNLFYISGFISQCTHGVGRSSTDRQFFFINRRPCDPAKVCRLVNEVYHMYNRHQYPFVVLNISVDSECVDINVTPDKRQILLQEEKLLLAVLKTSLIGMFDSDVNKLNVSQQPLLDVEGNLIKMHAADLEKPMVEKQDQSPSLRTGEEKKDVSISRLREAFSLRHTTENKPHSPKTPEPRRSPLGQKRGMLSSSTSGAISDKGVLRPQKEAVSSSHGPSDPTDRAEVEKDSGHGSTSVDSEGFSIPDTGSHCSSEYAASSPGDRGSQEHVDSQEKAPKTDDSFSDVDCHSNQEDTGCKFRVLPQPTNLATPNTKRFKKEEILSSSDICQKLVNTQDMSASQVDVAVKINKKVVPLDFSMSSLAKRIKQLHHEAQQSEGEQNYRKFRAKICPGENQAAEDELRKEISKTMFAEMEIIGQFNLGFIITKLNEDIFIVDQHATDEKYNFEMLQQHTVLQGQRLIAPQTLNLTAVNEAVLIENLEIFRKNGFDFVIDENAPVTERAKLISLPTSKNWTFGPQDVDELIFMLSDSPGVMCRPSRVKQMFASRACRKSVMIGTALNTSEMKKLITHMGEMDHPWNCPHGRPTMRHIANLGVISQN
notes: Purified as in Iyer et al. (21)
For B1, in the assay with MutSβ (MSH2-MSH3) [1], the dissociation constant (Kd) (usually the constant that tells how readily two partners part at equilibrium) was found to be 400 nM. Further, the “t1/2 of dissociation of the ternary complex” value with MutSβ (MSH2-MSH3) [2] stood at 7 s.
